The values below are quoted from earlier work in paper PMC3859915.

The target in this data set is IL-15 (Mus musculus) (UniProt P48346).
UniProt P48346, sequence (P48346 49-162): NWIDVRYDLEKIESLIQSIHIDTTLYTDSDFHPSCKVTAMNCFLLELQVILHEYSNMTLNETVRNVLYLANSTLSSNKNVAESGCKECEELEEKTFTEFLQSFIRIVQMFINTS

As for IL-15Rα (from UniProt Q60819), the Kd – broadly, the constant that tells how readily two partners part at equilibrium – was 0.014 nM.
